From US20230144459A1 (BIOND BIOLOGICS, published 2023)
Positions count from the first letter of the chain named. Where no end group is shown, it is not given here.

B1: VHH clone 4A1 (VHH)
VHH: QVQLVESGGGLVQAGGSLRLSCAASGSIFSINAMGWYRQAPGKQRERVAAITSGGSTNYADSVKGRFTISRDNAKNTVYLQMNNLEPRDAGVYYCVVDLYGEDYWIWGQGTQVTVSS
notes: VHH with AAA linker and C-terminal His6, made in CHO cells
B2: antibody M9 (antibody, V domains shown)
VH: DVKLVESGGGLVKLGGSLKLSCVASGFTFSSYYMSWVRQTPEKRLEWVATISDGGDNTYYAGTVTGRFTISRDFAKNTLYLQMNSLTSEDTAVYYCARIHWPYYFDSWGQGTTLTVSS
VL: QFVLSQSPAILSASPGEMLTMTCRASSSVSYMNWYQQKPGSSPKPWIYATSDLASGVPARFSGSGSGTSYSLTISRVEAEDAATYYCQQWSSHPPTFGGGTKLEIR
notes: Full-size mouse antibody from CD1 mice immunised with the dimeric stalk peptide, detected with anti mouse IgG; also called clone M9; anti-cleavage antibody M9
B3: VHH clone 4A4 (VHH)
VHH: EVQLVESGGGLVQAGGSLRLSCAASGSLFSINAMAWYRQAPGKQRELVAAITSSGSTNYANSVKGRFTVSRDNAKNTMYLQMNSLKPEDTAVYYCVVDEYGSDYWIWGQGTQVTVSS
notes: as for B1
B4: VHH clone 2A1 (VHH)
VHH: EVQLVESGGGLVQAGESLRLSCAASGSIASINAMGWYRQAPGSQRELVAAISGGGDTYYADSVKGRFTISRDNAKTTVYLQMNSLRPEDTAVYYCVVDLYGSDYWDWGQGTQVTVSSAAAHHHHHH
notes: VHH with AAA linker and C-terminal His6, made in CHO cells; also called VHH #2A1; 2A1-6H

Columns and labels:
[1] = molecular target: T1, L145K CD28 stalk region dimeric peptide (human, C-terminal biotin; dimeric); test: direct ELISA on biotinylated dimeric peptide on neutravidin plates
T1 construct: also called CD28 stalk region peptide with mutation at the cleavage site
T1 peptide: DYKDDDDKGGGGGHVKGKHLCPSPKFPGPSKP

[2] = molecular target: T2, c-Myc conjugated and biotinylated human CD28 stalk region dimeric peptide (wild-type) (human, C-terminal biotin; dimer by a disulfide linkage at Cysteine 141 (CD28 numbering)); test: direct ELISA, wild-type biotinylated dimeric stalk peptide on neutravidin plates
T2 construct: N-terminal tag, five glycines, then His134-Pro152 of human CD28; also called substrate peptide; wild-type CD28 stalk region dimeric peptide
T2 peptide: T1 peptide with K25L

[3] = molecular target: T3, BSA conjugated CD28 stalk region dimeric peptide (human, also: dimer, conjugated to BSA via C-terminal Lys); test: ELISA, BSA conjugated dimeric peptide on plate, serial dilution of M9
T3 construct: also called stalk region peptide
T3 peptide: GKHLCPSPLFPGPSKPK

[4] = molecular target: T4, membranal human CD28 (human, UniProt P10747 19-220); test: cell-based or functional assay
[5] = molecular target: T4, membranal human CD28; test: flow cytometry on HEK293 cells over expressing human CD28; percent reduction of median CD86-Fc (2 µg/mL) signal; competitor CD86-Fc

Row | Binder | binding result [1] | binding result [2] | binding result [3] | Inhibition (%) of CD28 shedding [4] | Blocking CD86 binding (%) [5]
1 | B1 | no binding (tested: 0.2-5 µg/mL) | binds |  |  | 
2 | B2 |  |  | binds |  | 
3 | B3 | no binding (tested: 0.2-5 µg/mL) | binds |  |  | 
4 | B4 | no binding (tested: 0.2-5 µg/mL) | binds |  | 58.9% | 8.2%
